Reference: article PMC3526665 (Protein and peptide letters, 2010)

Target: the molecule itself
Assay: SEC

B1: cytoplasmic domain of QseC (QseC-CD) (domain or fragment, E. coli)
chain: RERRFTSDAAHELRSPLTALKVQTEVAQLSDDDPQARKKALLQLHSGIDRATRLVDQLLTLSRLDSLDNLQDVAEIPLEDLLQSSVMDIYHTAQQAKIDVRLTLNAHSIKRTGQPLLLSLLVRNLLDNAVRYSPQGSVVDVTLNADNFIVRDNGPGVTPEALARIGERFYRPPGQTATGSGLGLSIVQRIAKLHGMNVEFGNAEQGGFEAKVSWLE
- stoichiometry N: 2
